According to patent publication US10344077 (DUKE UNIVERSITY, dated 2019):

Key:
[1] = molecular target: T1, SSB (UniProt P05455 1-408); experiment: AtheNA
T1 sequence (looked up): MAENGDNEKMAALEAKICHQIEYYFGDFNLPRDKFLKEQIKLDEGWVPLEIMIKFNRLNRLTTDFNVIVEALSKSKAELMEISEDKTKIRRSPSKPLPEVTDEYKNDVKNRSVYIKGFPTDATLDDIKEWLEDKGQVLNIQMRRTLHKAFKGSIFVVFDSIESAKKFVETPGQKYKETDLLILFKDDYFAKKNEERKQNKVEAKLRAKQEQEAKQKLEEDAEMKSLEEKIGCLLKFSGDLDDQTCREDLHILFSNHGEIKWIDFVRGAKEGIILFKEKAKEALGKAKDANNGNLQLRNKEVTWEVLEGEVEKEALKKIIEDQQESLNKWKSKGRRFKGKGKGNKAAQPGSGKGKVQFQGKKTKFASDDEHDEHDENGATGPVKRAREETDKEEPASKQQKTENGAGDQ
From the text: (§1) AtheNA Multi-Lyte ANA Plus Test System is one such assay. This is luminex-based assay, which is also used to screen patient sera.

[2] = molecular target: T2, Scl-70 (UniProt P11387 2-765); experiment: AtheNA
T2 sequence (looked up): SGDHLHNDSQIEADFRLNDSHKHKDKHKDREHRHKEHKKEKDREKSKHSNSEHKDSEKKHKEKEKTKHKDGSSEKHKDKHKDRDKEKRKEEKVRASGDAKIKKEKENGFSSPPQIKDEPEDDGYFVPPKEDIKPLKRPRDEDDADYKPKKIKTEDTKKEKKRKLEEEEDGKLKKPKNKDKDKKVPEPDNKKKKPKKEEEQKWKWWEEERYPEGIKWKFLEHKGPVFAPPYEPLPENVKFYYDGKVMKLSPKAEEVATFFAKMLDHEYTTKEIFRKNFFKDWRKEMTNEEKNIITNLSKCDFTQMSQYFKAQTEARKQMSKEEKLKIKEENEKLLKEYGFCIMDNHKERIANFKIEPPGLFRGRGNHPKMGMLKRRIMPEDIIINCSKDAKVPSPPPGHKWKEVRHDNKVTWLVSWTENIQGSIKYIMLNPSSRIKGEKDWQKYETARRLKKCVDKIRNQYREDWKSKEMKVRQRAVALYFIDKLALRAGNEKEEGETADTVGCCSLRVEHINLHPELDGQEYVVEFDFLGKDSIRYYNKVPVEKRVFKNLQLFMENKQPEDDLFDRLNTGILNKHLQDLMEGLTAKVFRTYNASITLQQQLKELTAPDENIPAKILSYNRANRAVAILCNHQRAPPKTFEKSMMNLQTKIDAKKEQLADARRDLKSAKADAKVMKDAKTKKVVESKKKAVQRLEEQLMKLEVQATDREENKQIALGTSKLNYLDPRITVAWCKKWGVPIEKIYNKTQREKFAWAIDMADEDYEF
From the text: as §1

[3] = molecular target: T3, Jo-1 (UniProt P12081 2-509); experiment: AtheNA
T3 sequence (looked up): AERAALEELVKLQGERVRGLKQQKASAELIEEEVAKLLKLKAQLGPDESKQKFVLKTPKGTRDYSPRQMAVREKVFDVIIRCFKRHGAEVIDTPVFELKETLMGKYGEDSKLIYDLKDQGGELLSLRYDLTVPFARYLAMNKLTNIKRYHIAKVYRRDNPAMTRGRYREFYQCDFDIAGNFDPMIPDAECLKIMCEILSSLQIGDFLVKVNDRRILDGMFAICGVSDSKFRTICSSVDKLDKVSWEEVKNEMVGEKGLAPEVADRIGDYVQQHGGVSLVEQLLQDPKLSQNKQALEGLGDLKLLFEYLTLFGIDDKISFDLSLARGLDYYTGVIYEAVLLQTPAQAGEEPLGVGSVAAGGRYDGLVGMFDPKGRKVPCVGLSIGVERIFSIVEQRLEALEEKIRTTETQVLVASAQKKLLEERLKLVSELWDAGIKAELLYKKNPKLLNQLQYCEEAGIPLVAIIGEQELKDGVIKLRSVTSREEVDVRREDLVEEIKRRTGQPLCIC
From the text: as §1

[4] = molecular target: T4, STUB-1 (human, UniProt Q9UNE7 1-303); experiment: array of human antigens
T4 sequence (looked up): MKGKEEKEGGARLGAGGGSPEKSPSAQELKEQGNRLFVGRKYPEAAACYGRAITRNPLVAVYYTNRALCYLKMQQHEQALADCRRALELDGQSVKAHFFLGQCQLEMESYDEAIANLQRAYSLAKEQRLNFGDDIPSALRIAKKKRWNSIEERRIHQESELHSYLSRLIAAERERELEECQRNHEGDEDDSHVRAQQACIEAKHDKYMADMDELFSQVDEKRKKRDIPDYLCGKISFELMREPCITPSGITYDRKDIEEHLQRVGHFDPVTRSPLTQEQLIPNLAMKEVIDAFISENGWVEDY

[5] = molecular target: SSA; experiment: AtheNA, Ab 25 ug/ml
From the text: as §1

[6] = molecular target: T1, SSB; experiment: AtheNA, Ab 25 ug/ml
From the text: as §1

[7] = molecular target: Sm (Smith antigen); experiment: AtheNA, Ab 25 ug/ml
From the text: as §1

[8] = molecular target: RNP (ribonucleoprotein); experiment: AtheNA, Ab 25 ug/ml
From the text: as §1

[9] = molecular target: T2, Scl-70; experiment: AtheNA, Ab 25 ug/ml
From the text: as §1

[10] = molecular target: T3, Jo-1; experiment: AtheNA, Ab 25 ug/ml
From the text: as §1

[11] = molecular target: T5, Centromere B (UniProt P07199 2-599); experiment: AtheNA, Ab 25 ug/ml
T5 construct: also called Cent B
T5 sequence (looked up): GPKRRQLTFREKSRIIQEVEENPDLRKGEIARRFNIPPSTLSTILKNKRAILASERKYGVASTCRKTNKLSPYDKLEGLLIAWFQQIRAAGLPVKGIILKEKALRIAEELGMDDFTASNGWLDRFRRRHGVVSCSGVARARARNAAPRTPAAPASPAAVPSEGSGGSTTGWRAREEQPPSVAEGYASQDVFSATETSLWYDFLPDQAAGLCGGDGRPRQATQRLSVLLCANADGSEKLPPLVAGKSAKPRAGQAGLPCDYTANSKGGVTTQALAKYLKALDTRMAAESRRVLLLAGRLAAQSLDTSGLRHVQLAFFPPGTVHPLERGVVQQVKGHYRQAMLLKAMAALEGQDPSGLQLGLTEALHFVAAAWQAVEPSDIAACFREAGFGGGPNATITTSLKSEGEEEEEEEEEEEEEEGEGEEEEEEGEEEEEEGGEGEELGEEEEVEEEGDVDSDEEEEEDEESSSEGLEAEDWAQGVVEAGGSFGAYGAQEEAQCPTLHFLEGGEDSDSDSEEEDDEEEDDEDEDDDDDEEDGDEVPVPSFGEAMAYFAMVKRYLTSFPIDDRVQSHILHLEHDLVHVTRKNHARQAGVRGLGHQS
From the text: as §1

[12] = molecular target: Histones; experiment: AtheNA, Ab 25 ug/ml
From the text: as §1

[13] = molecular target: SSA; experiment: AtheNA, Ab 50 ug/ml
From the text: as §1

[14] = molecular target: T1, SSB; experiment: AtheNA, Ab 50 ug/ml
From the text: as §1

[15] = molecular target: Sm (Smith antigen); experiment: AtheNA, Ab 50 ug/ml
From the text: as §1

[16] = molecular target: RNP (ribonucleoprotein); experiment: AtheNA, Ab 50 ug/ml
From the text: as §1

[17] = molecular target: T2, Scl-70; experiment: AtheNA, Ab 50 ug/ml
From the text: as §1

[18] = molecular target: T3, Jo-1; experiment: AtheNA, Ab 50 ug/ml
From the text: as §1

[19] = molecular target: T5, Centromere B; experiment: AtheNA, Ab 50 ug/ml
From the text: as §1

[20] = molecular target: Histones; experiment: AtheNA, Ab 50 ug/ml
From the text: as §1

[21] = molecular target: SSA; experiment: AtheNA, Ab 12.5 ug/ml
From the text: as §1

[22] = molecular target: T1, SSB; experiment: AtheNA, Ab 12.5 ug/ml
From the text: as §1

[23] = molecular target: Sm (Smith antigen); experiment: AtheNA, Ab 12.5 ug/ml
From the text: as §1

[24] = molecular target: RNP (ribonucleoprotein); experiment: AtheNA, Ab 12.5 ug/ml
From the text: as §1

[25] = molecular target: T2, Scl-70; experiment: AtheNA, Ab 12.5 ug/ml
From the text: as §1

[26] = molecular target: T3, Jo-1; experiment: AtheNA, Ab 12.5 ug/ml
From the text: as §1

[27] = molecular target: T5, Centromere B; experiment: AtheNA, Ab 12.5 ug/ml
From the text: as §1

[28] = molecular target: Histones; experiment: AtheNA, Ab 12.5 ug/ml
From the text: as §1

[29] = molecular target: SSA; experiment: AtheNA, Ab 6.25 ug/ml
From the text: as §1

[30] = molecular target: T1, SSB; experiment: AtheNA, Ab 6.25 ug/ml
From the text: as §1

[31] = molecular target: Sm (Smith antigen); experiment: AtheNA, Ab 6.25 ug/ml
From the text: as §1

[32] = molecular target: RNP (ribonucleoprotein); experiment: AtheNA, Ab 6.25 ug/ml
From the text: as §1

[33] = molecular target: T2, Scl-70; experiment: AtheNA, Ab 6.25 ug/ml
From the text: as §1

[34] = molecular target: T3, Jo-1; experiment: AtheNA, Ab 6.25 ug/ml
From the text: as §1

[35] = molecular target: T5, Centromere B; experiment: AtheNA, Ab 6.25 ug/ml
From the text: as §1

[36] = molecular target: Histones; experiment: AtheNA, Ab 6.25 ug/ml
From the text: as §1

B1: CH557 (antibody, V domains shown)
VH: QVRLAQYGGGVKRLGATMTLSCVASGYTFNDYYIHWVRQAPGQGFELLGYIDPANGRPDYAGALRERLSFYRDKSMETLYMDLRSLRYDDTAMYYCVRNVGTAGSLLHYDHWGSGSPVIVSS
VL: EIVLTQSPATLSASPGERVTLTCRASRSVRNNVAWYQHKGGQSPRLLIYDASTRAAGVPARFSGSASGTEFTLAISNLESEDFTVYFCLQYNNWWTFGQGTRVDIK
notes: also called CH557_4A/293i
- binding result [1]: no binding (tested: 6.25 ug/ml to 50 ug/ml)
- binding result [2]: no binding (tested: 6.25 ug/ml to 50 ug/ml)
- binding result [3]: no binding (tested: 6.25 ug/ml to 50 ug/ml)
- binding result [4]: no binding
- Athena reading [5]: 4 relative luminescence units
- Athena reading [6]: 12 relative luminescence units
- Athena reading [7]: 6 relative luminescence units
- Athena reading [8]: 6 relative luminescence units
- Athena reading [9]: 4 relative luminescence units
- Athena reading [10]: 2 relative luminescence units
- Athena reading [11]: 25 relative luminescence units
- Athena reading [12]: 8 relative luminescence units
- Athena reading [13]: 6 relative luminescence units
- Athena reading [14]: 15 relative luminescence units
- Athena reading [15]: 8 relative luminescence units
- Athena reading [16]: 10 relative luminescence units
- Athena reading [17]: 6 relative luminescence units
- Athena reading [18]: 10 relative luminescence units
- Athena reading [19]: 46 relative luminescence units
- Athena reading [20]: 16 relative luminescence units
- Athena reading [21]: 3 relative luminescence units
- Athena reading [22]: 9 relative luminescence units
- Athena reading [23]: 6 relative luminescence units
- Athena reading [24]: 3 relative luminescence units
- Athena reading [25]: 3 relative luminescence units
- Athena reading [26]: 5 relative luminescence units
- Athena reading [27]: 16 relative luminescence units
- Athena reading [28]: 6 relative luminescence units
- Athena reading [29]: 4 relative luminescence units
- Athena reading [30]: 5 relative luminescence units
- Athena reading [31]: 4 relative luminescence units
- Athena reading [32]: 4 relative luminescence units
- Athena reading [33]: 3 relative luminescence units
- Athena reading [34]: 5 relative luminescence units
- Athena reading [35]: 11 relative luminescence units
- Athena reading [36]: 4 relative luminescence units
